{"source": "patent CN113999303A", "about": "(BEIJING GENESEE BIOLOGICAL TECH CO LTD, dated 2022)", "biological_target": "T1, 新型冠状病毒核衣壳蛋白 (SARS-COV-2, UniProt P0DTC9 1-419)", "T1 construct": "also called SARS-COV-2 nucleocapsid protein; N protein", "assay": "ELISA screening of mouse hybridomas for antigen-specific antibodies"}
{"binder": "新型冠状病毒核衣壳抗体 mAb#9 (antibody, V domains shown, also called 第二新型冠状病毒核衣壳蛋白抗体) VH: EVQLVESGGGLVKPGGSLKLSCAASGITFSDYYMYWVRQTPEKRLEWVATISDGGSYTYYPDSVKGRFTISRDNAKNNLYLQMSSLKSEDTAMYYCVRDKSMGFGAWFAYWGQGTLVTVSA VL: EIVLTQSPTTMAASPGEKITITCSASSSISSNYLHWYQQRPGFSPKLLIYRTSNLASGVPARFSGSGSGTSYSLTIGTMEAEDVATYYCQQGHSIPYTFGGGTKLEIK", "values": [{"measurement": "binding result", "result": "binds"}]}
